This note sets out measurements from patent publication US20160158154A1 (GEORGIA TECH RESEARCH, published 2016).

First the molecules themselves.
B2: ZR-ELP (arginine-rich leucine zipper motif ZR fused with an elastin-like polypeptide) (other)
chain: MKGSLEIRAAALRRRNTALRTRVAELRQRVQRLRNEVSQYETRYGPLGGGGSGGGGSGVPGVGVPGVGVPGFGVPGVGVPGVGVPGVGVPGVGVPGFGVPGVGVPGVGVPGVGVPGVGVPGFGVPGVGVPGVGVPGVGVPGVGVPGFGVPGVGVPGVGVPGVGVPGVGVPGFGVPGVGVPGVGVPGC
notes: Forms ZR/ZR homodimers when no ZE partner is present

In data set [1] the target is B2. Briefly: co-expression in E. coli. The source says: to prevent degradation during expression (Park W M, et al., Angew. Chem. Int. Ed., 52 (31), 8098-8101 (2013); Zhang K, et., Chem Bio Chem, 10 (16), 2617-2619 (2009)). Co-expressed ZR-ELP, i.e. the fusion peptide having an amino acid sequence of […](G₄S)₂G[(VPGVG)₂VPGFG(VPGVG)₂]₅VPGC (SEQ ID NO:27) and His₆ZE form a protein complex His₆ZE/ZR-ELP, which is resistant to proteolysis in the cytoplasm. All plasmids (pQE60-His₆ZE/ZR-ELP, pQE60-mCherry-ZE, and pQE60-EGFP-Z₅) were transformed into E. coli strain AFIQ-BL21 for expression. All cell cultures were grown at 37° C. in 2× yeast extract and tryptone (YT) media containing ampicillin (200 mg/L) and chloramphenicol (34 mg/L). When the cell culture optical density at 600 nm reached 0.8, protein expression was induced by 1.0 mM of isopropylβ-thiogalactoside (IPTG). Cells were harvested by centrifugation after 5 hours of expression at 37° C.

Data set [2] deals with the molecule itself. Briefly: solution at 4 C; circular dichroism confirmed the coiled coil. Here is the method: The CD spectra of protein complexes were recorded on a Jasco J-810 spectropolarimeter (JASCO). Protein solution samples were prepared in PBS (pH 7.4), and measurements were performed in a 0.2 cm-length cuvette. The spectra were obtained in 1 nm increments within a wavelength range of 200-300 nm. Mean residue ellipticity was measured from protein solutions containing 5 μM of protein complexes at 4° C. Mean residue ellipticity was converted from accumulated spectra of five measurements for each sample. The peak at a wavelength of 222 nm indicated presence of α-helical coiled-coils of ZR/ZR and ZE/ZR.
For orientation: Circular dichroism is the unequal absorption of left and right circularly polarised light.

B1: His6-tagged ZE (peptide)
peptide: LEIEAAALEQENTALETEVAELEQEVQRLENIVSQYRTRYGPLRSHHHHHH
notes: It was co-expressed with ZR-ELP; also called His6ZE; His6-ZE
Turning to B1, in data set [1], the binding result is recorded as “binds”.

With B2, the binding result in data set [2] was “binds”.
